Where a chain is given by its changes, count along the chain named.
T1: interleukin-2 alpha receptor (SYMANSIS, #4102H) to which a human immunoglobulin Fc region was linked (UniProt P01589 22-213, limits assumed)
T1 construct: Bought receptor-Fc, captured on anti-human immunoglobulin antibody; also called IL-2Rα; CD25; not shown: human immunoglobulin Fc region
T1 sequence (looked up): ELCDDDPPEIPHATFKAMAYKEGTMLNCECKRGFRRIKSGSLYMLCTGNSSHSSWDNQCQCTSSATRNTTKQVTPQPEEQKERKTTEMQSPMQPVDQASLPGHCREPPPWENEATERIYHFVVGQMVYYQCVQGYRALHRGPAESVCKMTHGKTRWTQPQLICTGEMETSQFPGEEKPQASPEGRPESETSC

T2: interleukin-2 beta receptor (SYMANSIS, #4122H) to which a human immunoglobulin Fc region was linked (UniProt P14784 27-239, limits assumed)
T2 construct: Bought receptor-Fc, captured on anti-human immunoglobulin antibody; also called IL-2Rβ; CD122; not shown: human immunoglobulin Fc region
T2 sequence (looked up): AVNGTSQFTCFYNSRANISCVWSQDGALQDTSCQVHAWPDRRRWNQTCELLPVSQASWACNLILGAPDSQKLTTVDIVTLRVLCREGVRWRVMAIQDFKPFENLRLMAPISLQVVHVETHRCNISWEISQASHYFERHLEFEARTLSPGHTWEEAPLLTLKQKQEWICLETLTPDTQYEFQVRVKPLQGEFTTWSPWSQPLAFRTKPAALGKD

B1: interleukin-2 analog 99 (ligand)
chain: PTSSSTKKTQLQLEHLLLDLQMILNGINNYKNPKLTAMLTFKFYMPKKATELKHLQCLEEELKPLEEVLNLAQSKNFHFEPRDLVSNINVFVLELKGSETTFMCEYADETATIVEFLNRWITFSQSIISTLT
B2: interleukin-2 analog 104 (ligand)
chain: B1 chain with L17R, Q21E, A37R, E60D, L84V
B3: interleukin-2 analog 92 (ligand)
chain: B1 chain with A37R, L84V, V90T
B4: interleukin-2 analog 103 (ligand)
chain: B1 chain with L17R, Q21E, L84V
B5: interleukin-2 analog 86 (ligand)
chain: B1 chain with L17R, Q21E, A37R, L84V
B6: interleukin-2 analog 105 (ligand)
chain: B1 chain with L17R, Q21E, A37R, E67D, L84V
B7: interleukin-2 analog 101 (ligand)
chain: B1 chain with A37R, V85A
B8: interleukin-2 analog 100 (ligand)
chain: B1 chain with A37R, L84Y
B9: interleukin-2 analog 88 (ligand)
chain: B1 chain with A37R, E60D, L84V
B10: interleukin-2 analog 96 (ligand)
chain: B1 chain with A37R, V68G, Q73A, L84V
B11: interleukin-2 analog 35 (ligand)
chain: B1 chain with F79L, E80R, V85I, F91I, L93F, L95F
B12: interleukin-2 analog 98 (ligand)
chain: B1 chain with L84V, V85I
B13: interleukin-2 analog 102 (ligand)
chain: B1 chain with A37R, L84V, F91I
B14: interleukin-2 analog 17 (ligand)
chain: B1 chain with F41K, F79L, E80R, V85I, V90T, F91I
B15: interleukin-2 analog 95 (ligand)
chain: B1 chain with A37R, V68G, L84V
B16: interleukin-2 analog 90 (ligand)
chain: B1 chain with A37R, F41W, L84V
B17: interleukin-2 analog 91 (ligand)
chain: B1 chain with A37R, E60Q, L84V
B18: interleukin-2 analog 97 (ligand)
chain: B1 chain with E80D, V85I
B19: interleukin-2 analog 41 (ligand)
chain: B1 chain with A37R, E80D, L84V
B20: interleukin-2 analog 93 (ligand)
chain: B1 chain with A37R, D83E, L84V, V90T
B21: interleukin-2 analog 20 (ligand)
chain: B1 chain with F41K, F79L, E80R, L84V
B22: interleukin-2 analog 15 (ligand)
chain: B1 chain with F41K, F79L, E80R, D83E, V85I, F91I
B23: interleukin-2 analog 21 (ligand)
chain: B1 chain with F41K, E80D, L84V
B24: interleukin-2 analog 52 (ligand)
chain: B1 chain with F41K, E80D, V85I
B25: interleukin-2 analog 19 (ligand)
chain: B1 chain with F41K, F79L, E80D, V85I
B26: interleukin-2 analog 12 (ligand)
chain: B1 chain with F41K, F79L, E80R, V85I, F91I
B27: interleukin-2 analog 53 (ligand)
chain: B1 chain with F41K, E80D, D83E, V85I

target: T1, interleukin-2 alpha receptor (SYMANSIS, …); assay: SPR (Biacore T200); receptor-Fc captured on anti-human Ig CM5 chip, analog flowed; relative to analog 1 = 100%
Method: (§1) In order to measure the binding affinities of the interleukin-2 analogs obtained in Example 4 for each of interleukin-2 alpha and beta receptors, surface plasmon resonance (SPR, BIACORE T200, GE Healthcare) was used. The binding affinities of the prepared analogs for the alpha and beta receptors were measured, and the binding affinity of each of the prepared analogs was compared with that of interleukin-2 analog 1 (aldesleukin).
(§2) First, an anti-human immunoglobulin antibody (Abcam, #ab97221) was immobilized to a CM5 chip (GE healthcare) to about 5,000 resonance unit (RU) through amine coupling, and then the interleukin-2 alpha receptor ([…], #4102H) or interleukin-2 beta receptor ([…], #4122H), to each of which a human immunoglobulin Fc region was linked, was bound to the immunoglobulin antibody using an antigen-antibody binding reaction and thus finally immobilized. Thereafter, the recombinant interleukin-2 analog prepared above was diluted with HBS-P+ buffer (Cytiva, BR100671) to various concentrations by serial dilution, and the diluted samples were allowed to flow through CM5 chips, to which the interleukin-2 receptors were finally immobilized, to measure the binding affinity of each interleukin-2 receptor. […] Upon the completion of the measurement, the binding affinity of the receptor was evaluated according to the 1:1 binding fitting model in the Biaevaluation program.

Row | Relative binding affinity (%) | Binder
1 | 19.9 | B1
2 | 122 | B2
3 | 97.3 | B3
4 | 6.1 | B4
5 | 71.1 | B5
6 | 247 | B6
7 | 24.7 | B7
8 | 29.1 | B8
9 | 102 | B9
10 | 14.9 | B10
11 | 31.7 | B11
12 | 7.7 | B12
13 | 151 | B13
14 | 29.6 | B14
15 | 10.7 | B15
16 | 98.4 | B16
17 | 7.9 | B17
18 | 18.8 | B18
19 | 121 | B19
20 | 92.8 | B20

target: T2, interleukin-2 beta receptor (SYMANSIS, …); assay: as above
Method: as §1, §2

Row | Relative binding affinity (%) | Binder
21 | 156 | B21
22 | 1510 | B1
23 | 25400 | B2
24 | 1510 | B3
25 | 98.1 | B22
26 | 13100 | B4
27 | 18700 | B5
28 | 26800 | B6
29 | 113 | B7
30 | 2530 | B8
31 | 13900 | B9
32 | 229 | B10
33 | 14100 | B23
34 | 233 | B11
35 | 11100 | B12
36 | 3820 | B24
37 | 4450 | B13
38 | 9.4 | B14
39 | 17.1 | B15
40 | 12800 | B16
41 | 455 | B25
42 | 166 | B26
43 | 7360 | B17
44 | 691 | B27
45 | 3020 | B18
46 | 22800 | B19
47 | 697 | B20

target: T1, interleukin-2 alpha receptor (SYMANSIS, …); assay: SPR (Biacore T200); receptor-Fc captured on anti-human Ig CM5 chip

Row | binding result | Binder
48 | no binding | B21
49 | no binding | B22
50 | no binding | B23
51 | no binding | B24
52 | no binding | B25
53 | no binding | B26
54 | no binding | B27

Reference: patent US20260242436A1 (HANMI PHARM, published 2026)
